Results from the supplement of paper PMC7877785.
± gives the uncertainty stated by the source.

Assay: self-splicing fitness, log relative to wild type (ln ratio); higher = more splicing; Tetrahymena group I intron in knt gene, E. coli kanamycin selection, DiMSum; sequences stand for … in CUCUCU…GGAGGGAAAAGUUAUCAGGCAUGCACCUGGUAGCUAGUCUUUAAACCAAUAGAUUGCAUCGGUUUAAAAGGCAAGACCGUCAAAUUGCGGGAAAGGGGUCAACAGCCGUUCAGUACCAAGUCUCAGGGGAAACUUUGAGAUGGCCUUGCAAAGGGUAUGGUAAUAAGCUGACGGACAUGGUCCUAACCACGCAGCCAAGUCCUAAGUCAACAGAUCUUCUGUUGAUAUGGAUGCAGUUCACAGACUAAAUGUCGGUCGGGGAAGAUGUAUUCUUCUCAUAAGAUAUAGUCGGACCUCUCCUUAAUGGGAGCUAGCGGAUGAAGUGAUGCAACACUGGAGCCGCUGGGAACUAAUUUGUAUGCGAAAGUAUAUUGAUUAGUUUUGGAGUACUCGUGGUCG
Method in brief: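 Fitness was computed with DiMSum as the error-weighted combination of replicate fold changes, kanamycin versus none, each normalised to wild type. The library randomised all eight intron nucleotides of the P1ex region, with the intron placed in the knt kanamycin-resistance gene on pET-22b(+) in E. coli BL21(DE3). Six replicate transformations were grown overnight at 37°C or 30°C on LB agar with or without 25 μg/mL kanamycin, plus 100 μg/mL carbenicillin, 50 μM IPTG and 0.2% rhamnose. Pooled colonies were amplicon-sequenced on an Illumina HiSeq 2500.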

| Sequence | self-splicing fitness (ln) (30 °C) | self-splicing fitness (ln) (37 °C) |
| --- | --- | --- |
| CCCUAGCAAUAUUACGGAGC | -3.31 ± 0.21 | -2.22 ± 0.23 |
| CCCUAGCAAUAUUACGGCAC | -3.42 ± 0.21 | -1.5 ± 0.2 |
| CCCUAGCAAUAUUACGGCCG | -2.29 ± 0.36 | -1.62 ± 0.34 |
| CCCUAGCAAUAUUACGGCGU | -2.1 ± 0.15 | -2.35 ± 0.17 |
| CCCUAGCAAUAUUACGGGCA | -2.16 ± 0.22 | -1.55 ± 0.2 |
| CCCUAGCAAUAUUACGGGUA | -2.41 ± 0.14 | -3.01 ± 0.19 |
| CCCUAGCAAUAUUACGGGUU | -4.16 ± 0.17 | -2.39 ± 0.15 |
| CCCUAGCAAUAUUACGUAGA | -4.06 ± 0.26 | -3.05 ± 0.26 |
| CCGAAGCAAUAUUACGAAAU | -4.57 ± 0.29 | -1.9 ± 0.2 |
| CCGAAGCAAUAUUACGAAGA | -3.27 ± 0.39 | – |
| CCGAAGCAAUAUUACGAAGC | – | -1.59 ± 0.24 |
| CCGAAGCAAUAUUACGACGG | -3.76 ± 0.27 | -3.11 ± 0.29 |
| CCGAAGCAAUAUUACGACUU | -2.97 ± 0.22 | -3.91 ± 0.39 |
| CCGAAGCAAUAUUACGAUCA | -2.35 ± 0.13 | -0.736 ± 0.14 |
| CCGAAGCAAUAUUACGAUUA | -2.53 ± 0.14 | -2.31 ± 0.2 |
| CCGAAGCAAUAUUACGCAGC | -3.49 ± 0.23 | -2.36 ± 0.37 |
| CCGAAGCAAUAUUACGCCAG | -1.32 ± 0.11 | -0.531 ± 0.13 |
| CCGAAGCAAUAUUACGCGCA | -2.85 ± 0.28 | -1.95 ± 0.21 |
| CCGAAGCAAUAUUACGCGGA | -3.61 ± 0.43 | -1.78 ± 0.19 |
| CCGAAGCAAUAUUACGCGGU | -3.64 ± 0.22 | -2.11 ± 0.2 |
| CCGAAGCAAUAUUACGGCCU | -3.94 ± 0.36 | -2.02 ± 0.33 |
| CCGAAGCAAUAUUACGGGGG | -4.9 ± 0.46 | -2.26 ± 0.33 |
| CCGAAGCAAUAUUACGUAUU | -4.74 ± 0.29 | -3.35 ± 0.2 |
| CCGAAGCAAUAUUACGUGCA | -3.4 ± 0.3 | – |
| CCGAAGCAAUAUUACGUGCU | -4 ± 0.24 | -2.88 ± 0.28 |

| Sequence | self-splicing fitness (ln) (30 °C) | self-splicing fitness (ln) (37 °C) |
| --- | --- | --- |
| CCGAAGCAAUAUUACGUGGC | -3.27 ± 0.19 | -2.61 ± 0.34 |
| CCGAAGCAAUAUUACGUUAA | – | -0.989 ± 0.23 |
| CCGAAGCAAUAUUACGUUCA | -2.76 ± 0.16 | -0.988 ± 0.23 |
| CCGCAGCAAUAUUACGAAGU | -3.34 ± 0.31 | -2.5 ± 0.33 |
| CCGCAGCAAUAUUACGACGU | -3.96 ± 0.21 | -2.38 ± 0.22 |
| CCGCAGCAAUAUUACGAGUA | -3.31 ± 0.24 | -2.82 ± 0.28 |
| CCGCAGCAAUAUUACGAUUG | -0.997 ± 0.085 | -0.816 ± 0.09 |
| CCGCAGCAAUAUUACGCAAA | -3.29 ± 0.21 | -2.15 ± 0.22 |
| CCGCAGCAAUAUUACGCAGU | -2.96 ± 0.18 | -1.48 ± 0.17 |
| CCGCAGCAAUAUUACGCAUA | -3.34 ± 0.19 | -2.31 ± 0.17 |
| CCGCAGCAAUAUUACGCCCU | -3.34 ± 0.47 | 0.196 ± 0.3 |
| CCGCAGCAAUAUUACGCCGU | -3.34 ± 0.27 | -2.26 ± 0.22 |
| CCGCAGCAAUAUUACGGCAA | -2.74 ± 0.24 | -2.53 ± 0.22 |
| CCGCAGCAAUAUUACGGCGA | -1.15 ± 0.084 | -0.544 ± 0.085 |
| CCGCAGCAAUAUUACGGCGC | – | -0.961 ± 0.22 |
| CCGCAGCAAUAUUACGGUCA | -3.47 ± 0.29 | -2.46 ± 0.3 |
| CCGCAGCAAUAUUACGUACU | -4.17 ± 0.33 | -3.33 ± 0.4 |
| CCGCAGCAAUAUUACGUCCU | -3.12 ± 0.18 | -1.39 ± 0.17 |
| CCGCAGCAAUAUUACGUCUU | -3.69 ± 0.37 | -3.07 ± 0.24 |
| CCGCAGCAAUAUUACGUUAC | -3.36 ± 0.14 | -2.29 ± 0.14 |
| CCGGAGCAAUAUUACGAAAC | -1.5 ± 0.23 | -0.933 ± 0.2 |
| CCGGAGCAAUAUUACGAAGG | -2.63 ± 0.14 | -2.28 ± 0.22 |
| CCGGAGCAAUAUUACGAGCG | -0.715 ± 0.082 | 0.256 ± 0.12 |
| CCGGAGCAAUAUUACGAGGA | – | -1.96 ± 0.24 |
| CCGGAGCAAUAUUACGAGGU | -3.56 ± 0.46 | -2.6 ± 0.31 |

| Sequence | self-splicing fitness (ln) (30 °C) | self-splicing fitness (ln) (37 °C) |
| --- | --- | --- |
| CCGGAGCAAUAUUACGAUCC | -2.16 ± 0.49 | – |
| CCGGAGCAAUAUUACGCCCG | -1.86 ± 0.41 | – |
| CCGGAGCAAUAUUACGCGUA | -3.18 ± 0.3 | -1.59 ± 0.2 |
| CCGGAGCAAUAUUACGGCGA | -3.92 ± 0.33 | -2.42 ± 0.48 |
| CCGGAGCAAUAUUACGUCGG | -3.63 ± 0.21 | -2.82 ± 0.3 |
| CCGGAGCAAUAUUACGUGGC | -3.77 ± 0.39 | – |
| CCGGAGCAAUAUUACGUUAU | -2.97 ± 0.31 | -2.01 ± 0.23 |
| CCGUAGCAAUAUUACGACAA | -3.54 ± 0.27 | -3.19 ± 0.33 |
| CCGUAGCAAUAUUACGAGGG | -3.25 ± 0.18 | -0.352 ± 0.17 |
| CCGUAGCAAUAUUACGAUCG | 0.0338 ± 0.098 | 0.353 ± 0.12 |
| CCGUAGCAAUAUUACGAUGA | -1.48 ± 0.11 | -1.13 ± 0.12 |
| CCGUAGCAAUAUUACGCAUA | -2.31 ± 0.19 | -2.12 ± 0.33 |
| CCGUAGCAAUAUUACGCCGG | -2.94 ± 0.49 | – |
| CCGUAGCAAUAUUACGCCGU | -3 ± 0.44 | -2.16 ± 0.27 |
| CCGUAGCAAUAUUACGCCUC | -1.88 ± 0.44 | -1.82 ± 0.35 |
| CCGUAGCAAUAUUACGCGAU | -2.48 ± 0.22 | -3.66 ± 0.35 |
| CCGUAGCAAUAUUACGCGCG | -2.15 ± 0.17 | -0.999 ± 0.18 |
| CCGUAGCAAUAUUACGCGGA | -2.85 ± 0.26 | -3.13 ± 0.26 |
| CCGUAGCAAUAUUACGCGUA | -3.69 ± 0.3 | -2.06 ± 0.31 |
| CCGUAGCAAUAUUACGGACG | -1.88 ± 0.26 | – |
| CCGUAGCAAUAUUACGGAGA | -3.01 ± 0.28 | -2.32 ± 0.38 |
| CCGUAGCAAUAUUACGGCUG | -2.46 ± 0.21 | -1.19 ± 0.17 |
| CCGUAGCAAUAUUACGUCUC | -3.43 ± 0.21 | -3.67 ± 0.31 |
| CCGUAGCAAUAUUACGUUCU | -3.34 ± 0.28 | -3.36 ± 0.42 |
| CCUAAGCAAUAUUACGACCA | -3.19 ± 0.21 | -1.46 ± 0.17 |

| Sequence | self-splicing fitness (ln) (30 °C) | self-splicing fitness (ln) (37 °C) |
| --- | --- | --- |
| CCUAAGCAAUAUUACGACUG | -1.74 ± 0.15 | -0.483 ± 0.14 |
| CCUAAGCAAUAUUACGACUU | -4.37 ± 0.17 | -2.4 ± 0.13 |
| CCUAAGCAAUAUUACGAGUA | -2.5 ± 0.16 | -1.98 ± 0.18 |
| CCUAAGCAAUAUUACGAUGC | -3.49 ± 0.17 | -1.88 ± 0.16 |
| CCUAAGCAAUAUUACGCAAG | -4.71 ± 0.46 | – |
| CCUAAGCAAUAUUACGCACG | -3.1 ± 0.41 | -1.46 ± 0.23 |
| CCUAAGCAAUAUUACGCAGG | -4.8 ± 0.29 | -2.37 ± 0.25 |
| CCUAAGCAAUAUUACGCCAC | -2.75 ± 0.22 | – |
| CCUAAGCAAUAUUACGCGGG | -3.96 ± 0.21 | -2.68 ± 0.21 |
| CCUAAGCAAUAUUACGCUGG | -4.1 ± 0.32 | -2.48 ± 0.25 |
| CCUAAGCAAUAUUACGGAAG | -2.12 ± 0.11 | -0.751 ± 0.1 |
| CCUAAGCAAUAUUACGGAGU | -3 ± 0.17 | -2.55 ± 0.17 |
| CCUAAGCAAUAUUACGGGCG | -2.15 ± 0.11 | -0.76 ± 0.1 |
| CCUAAGCAAUAUUACGGUAU | -3.72 ± 0.23 | -1.85 ± 0.24 |
| CCUAAGCAAUAUUACGUAAA | -3.49 ± 0.24 | -2.43 ± 0.16 |
| CCUAAGCAAUAUUACGUGGU | -4.74 ± 0.32 | -3.13 ± 0.25 |
| CCUAAGCAAUAUUACGUUCU | -2.57 ± 0.16 | -3.16 ± 0.34 |
| CCUAAGCAAUAUUACGUUUG | -4.59 ± 0.18 | -3.16 ± 0.16 |
| CCUAAGCAAUAUUACGUUUU | -3.89 ± 0.18 | -1.3 ± 0.13 |
| CCUCAGCAAUAUUACGAACA | -4.3 ± 0.42 | -1.46 ± 0.41 |
| CCUCAGCAAUAUUACGAAUU | -2.53 ± 0.18 | -2.13 ± 0.2 |
| CCUCAGCAAUAUUACGAGCG | -2 ± 0.094 | -1.05 ± 0.088 |
| CCUCAGCAAUAUUACGCAAC | -2.21 ± 0.3 | -1.83 ± 0.4 |
| CCUCAGCAAUAUUACGCAAU | -3.87 ± 0.2 | -2.01 ± 0.18 |
